Legend:
[1] = biological target: pre-formed corona layer (proteins of 10% mouse serum pre-adsorbed on L-NPs) (mouse (endogenous in serum)); test: BLI; L-NPs loaded on human IgG-coated AR2G biosensors, immersed in 10% mouse serum (300 s in the methods, 3 min in the text) and rinsed with water; association 300 s with 6.25-100 nM HSA or IgG, dissociation 600 s in buffer; 30 °C, 1000 rpm; 1:1 model
[2] = biological target: Albumin purified from human serum (human) (UniProt P02768); test: BLI; HSA pre-coated on L-NPs
[3] = biological target: Immunoglobulin G purified from human serum (human) [IgG part: P01857]; test: BLI; IgG pre-coated on L-NPs

Substance | Kd [1] [nM] | Kd [2] [pM] | Kd [3] [nM]
Albumin purified from human serum (from UniProt P02768 25-609) (natural protein) | 32.5 | – | –
Immunoglobulin G purified from human serum (antibody) | 1.2 | – | –
Immunoglobulin G purified from human serum (from UniProt P01857) | – | < 1 | 5.1

From publication PMC9474507
